From the DeepSol protein solubility set

Assay: soluble on expression in E. coli; label from the status in PepcDB or PDB records

Sequence | soluble on expression in E. coli
SNAMIKRPIHMSHDFLAEVLDDESIVVDATMGNGNDTAFLAGLSKKVYAFDVQEQALGKTSQRLSDLGIENTELILDGHENLDHYVREPIRAAIFNLGYLPSADKSVITKPHTTLEAIEKILDRLEVGGRLAIMIYYGHDGGDMEKDAVLEYVIGLDQRVFTAMLYQPLNQINTPPFLVMLEKLQ | soluble
MGIVSAASLIKVINEKQLKMAQDQNPLTALPGNRAIGGFIADSCSDGDETRFFCYCDFDNFKPFNDKYGFNAGDHAITLFSALMRRYFFAGDCFLGHIGGDDFFIGVRDWSVEELMEILERLLSDFHDDVAGLYSDEDRAAGCMKGQDRNGLEHHHHHH | soluble
MDASIEKRPRTRLSPQKRKLQLMEIALEVFAKRGIGRGGHADIAEIAQVSVATVFNYFPTREDLVDDVLNFVVRQYSNFLTDHIDLDLDVKTNLQTLCKEMVKLAMTDCHWLKVWFEWSASTRDEVWPLFVSTNRTNQLLIRNMFMKAMERGELCEKHDVDNMASLFHGIFYSIFLQVNRLGEQEAVYKLADSYLNMLCIYKN | soluble
PHDDSYWDRVLTHGKNCIKYTPNNAASLHNAIRLLNESPWMKVTMGLEALNVAQLYSAERCYMPIAQYLCSEHAPTSHHGAKARNNVKGYDHV | not soluble
MQLGDKQLVVQLACANQQRHNTNLPNSASAIAGIDLSQGAGRATEILCLMNMVTEDELKADDEYEEILEDVRDECSKYGIVRSLEIPRPYEDHPVPGVGKVFVEFASTSDCQRAQAALTGRKFANRTVVTSYYDVDKYHNRQF | not soluble
MKHSHEEIRKIIPEMRRVQQIHFIGIGGAGMSGIAEILLNEGYQISGSDIADGVVTQRLAQAGAKIYIGHAEEHIEGASVVVVSSAIKDDNPELVTSKQKRIPVIQRAQMLAEIMRFRHGIAVAGTHGKTTTTAMISMIYTQAKLDPTFVNGGLVKSAGKNAHLGASRYLIAEADESDASFLHLQPMVSVVTNMEPDHMDTYEGDFEKMKATYVKFLHNLPFYGLAVMCADDPVLMELVPKVGRQVITYGFSEQADYRIEDYEQTGFQGHYTVICPNNERINVLLNVPGKHNALNATAALAVAKEEGIANEAILEALADFQGAGRRFDQLGEFIRPNGKVRLVDDYGHHPTEVGVTIKAAREGWGDKRIVMIFQPHRYSRTRDLFDDFVQVLSQVDALIMLDVYAAGEAPIVGADSKSLCRSIRNLGKVDPILVSDTSQLGDVLDQIIQDGDLILAQGAGSVSKISRGLAESWKN | soluble
MNGIIVDKEKVHPGMPDVVKDAKIALLDAPLEIKKPEFDTNLRIEDPSMIQKFLAQEENMLREMVDKIKSVGANVVITQKGIDDMAQHYLSRAGIYAVRRVKKSDMDKLAKATGASIVSTIDEISSSDLGTAERVEQVKVGEDYMTFVTGSKNHHHHHH | soluble
MITAYIALGSNLNTPVEQLHAALKAISQLSNTHLVTTSSFYKSKPLGPQDQPDYVNAVAKIETELSPLKLLDELQRIENEQGRVRLRRWGERTLDLDILLYGNEIIQNERLTIPHYDMHNREFVIVPLFEIASDLVLPNSQIITELVKQFADHKMIKLNP | soluble
MATLFIADLHLQTEEPAIVAGFLRFLAVEARQADALYILGDLFEAWIGDDDPNPLHREMAVAIKSLVDSGVPCFFIHGNRDFLIGKRFARESGMILLPQEKVLDLYGRNVLIMHGDTLCTDDAGYQAFRAKVHNPWVQRLFLTLPLFIRRRIAARMRAGSKAANSSKSLDIMDVNAQTVVAEMEKHRVQWLIHGHTHRPAVHELSANDQPAFRVVLGAWHHEGSMVKVTPDNVELIAFPLLEHHHHHH | not soluble
MSLIIETPSKVILFGEHAVVYGYRAISMAIDLTSTIEIKETQEDEIILNLNDLNKSLGLNLNEIKNINPNNFGDFKYCLCAIKNTLDYLNIEPKTGFKINISSKIPISCGLGSSASITIGTIKAVSGFYNKELKDDEIAKLGYMVEKEIQGKASITDTSTITYKGILEIKNNKFRKIKGEFEEFLKNCKFLIVYAEKRKKKTAELVNEVAKIENKDEIFKEIDKVIDEALKIKNKEDFGKLMTKNHELLKKLNISTPKLDRIVDIGNRFGFGAKLTGAGGGGCVIILVNEEKEKELLKELNKEDVRIFNCRMMNEGGSHHHHHH | soluble
MGSDKIHHHHHHEDDCATNPEPAGDVTEIKLSAGIQGVATRTPVSTNDNITAPFVASATTGDYTTNAWSSTVTFVASPTPTAALSFSPARYYPVDNSPIYIRGYYPAGTLSGKTVTLAGDGTEDVMLTAQASGTKATAGALSFVFNHLLTQLQFKLVAGAGYPASGVNVTSLVIKQQKTPATLDLNTSSLTYTTKDLTLSGTFPILTAGSTINNYPMVKSGEALTVAVTTSDGVTYPESTISVTTEVGKSHLITLTFTPKEITSSISVTAWQTGGTGSSTLQ | not soluble
MGHHHHHHSHMHAPLSLLKQMLKEHQIDTEKAVTFEEYIAMRLKLQELMGKFASIGEWDLYQKAADLMMHIGIQWMK | not soluble
MSTRWYPIYQRGNPQLRVFLPNFWMKLIRPTEEQPPNVVTFSVSMEMTKYDVRNYLEKIYKLPVVDVRTRIAMGETKKDQTYGYITKKDDVKLAYVTLPREESFVFPDFFSEKAEKQAKEEKSLDESKAGFRRFLDRNKKRPGTPGWFSI | not soluble
MGSDKIHHHHHHMDNPFARFAGTRTIQANLSLLEENYVPDSFPHRENQINEMVTILSSIMRGSRPSNIIVYGKTGTGKTSTTKYVTKMLVEAASNVSVVYVNCEIYDSPYSILVAIANSAGEEKIPELGWPIDRIYRETVERVEKTGKFFIIILDEMDRLIKKNGGDSLYVLLKLMTDVDSVRVSMIGITNDTTVLENIDARIKSRLNQESIVFPPYNASEIRDIISSRLDKVLGPGVVDDTAINLCAAIGAQEHGDARKAIDLMRIAIEIAIRENRNKITENEIYEARERYEMNVLREAISTLPLHSKIVLLSAVVTQEIEPNSVITGEIYENYRRICDDLGFSPLSPRRISDLLTELADYGLLVMDDRNMGKYGRTRSFSVVHQAETIKKYLLEDENLSMFKSSKMPKQTRFDT | not soluble
MERRSVQKKELLSTPVVPIDIKAFDAGPILEAMGKTAFQARNLHRAAEIYLRMLEDDCAVILTLAGSLVSAGQGLIVHDLIRKGLVDVIVATGANIVDQDFFEALGHRHYQGDPRADDEALRRLWIDRIYDTYIDEEELRHTDYTVAEIADGLEPRPYSSREFIWQMGRYLAERGLGEKRIVRRAYEKGVPIFVTAFSDSSAGFGLVYHQVKRPEAHVTIDSVADFRELTEIKLKAGTTGLVMLGGGVPKNFAQDIVVAAEVLGHRVEMHKYAIQITVADERDGGLSGSTLSEAQSWGKVDARLSQMVFAEATLAFPLLASYVWHRAPARAKRRYAELFREKAPA | soluble
MGSDKIHHHHHHMYFITLSRQLGTKGTEIAKLVAKELHYDFYDTEAIEKKAGEMGFLDDIRKVDDKPPSPLKQLFSWQTETCLEHLYTVIYDLSRYGNAVVLGRGGNMLFRPIPHALHVRVIASHEKRVQNLLEKVYRRETAVMIMEKSDQERSSFIRFAFNRDWGDPELYDMVLNMDNMTVRSAADTILRAARLRESQCPSRDGMSPLNLMELTAKVKAALANAGFPSNYASPFVNAPGKVRLTGIVHDPREKLAAEMTALKVEGVESVENRIQIAGS | not soluble
MPTPAYMRIEGEKQGLITAGTFTEDSVGNIYQEGHEDEVLVQGFEHQVLLPRDPQSGQPTGQRVHKPVRITKVFDKASPLMYNALTSGEKLPKVEIKWYRTSATGTQEHYFTTVLHDAIIVDITASMPNCQDPSQAHFTHLEDVFMTYRAIDWTHEVAGTSGNDDWRTAMKA | soluble
MGSDKIHHHHHHMDIRQLKTFIAIAEHGTFAKAADAVGLTPSAVSQQIQALESEVRGELFDRATRPIMLNGHGLQMLEAARTLVRDADNIIDAISGRAVSGTFTIGSVRSSALSLLPLSIVALKADYPDLRIKLQVANTDELLKDVMSGRLDCAMVAEYSGIPSALRWQPFINEPLLVIGPNGTPKMSGFDMLSKLPYVRFNSKFRLAQIIETELAKTRIVPNLIAEIDTIASVVSCVIHGLGVSVVPWIALRDIAAPIVAVQFGEPQILRPIGLLERRSGTRAQIIDRLHQNLARLSDPYGIPR | not soluble
MAKKEEYVRKPDWLKIKLNTNETYTGLKKMMREKNLHTVCEEAKCPNIHECWAVRKTATFMILGDVCTRACRFCAVKTGLPNELDLQEPERVAESVEIMGLKHAVITAVARDDLKDGGAGVFAETVRAVRRRNPFCTIEVLPSDMMGNDDNLKTLMDARPNILNHNIETVRRLTPRVRARATYERSLEFLRRAKEMQPDIPTKSSLMIGLGETKDEIIETMDDLRANNVDIMTIGQYLQPTKKHLKVQKYYHPDEFAELKEIALSKGFSHCEAGPLVRSSYHADEQVNEAQVREEARKAAAKS | not soluble
MAGKPKLHYFNGRGRMEPIRWLLAAAGVEFEEKFIGSAEDLGKLRNDGSLMFQQVPMVEIDGMKLVQTRAILNYIASKYNLYGKDIKERALIDMYTEGMADLNEMILLLPLCRPEEKDAKIALIKEKTKSRYFPAFEKVLQSHGQDYLVGNKLSRADISLVELLYYVEELDSSLISNFPLLKALKTRISNLPTVKKFLQPGSPRKPPADAKALEEARKIFRF | soluble
MGSDKIHHHHHHMSTVTTGRTLDANGDPVPGTGFELDPDSQFADRVRERTGPVTSHPTRPVWGIPLEGSGDTIRTLSVFGPGYGGPPEHYHEQSPERFEVERGSLTMMLDGTDHEVTAGETATVETGVTHTFRNDTDKRAVVITNIYSPGRLRQVLPTLGGLAHDDEGNPENPLQQALVADRLDGNTVFTRQERLEPLSRLLTPVAELAGYQGAYAKYTQPAFWERHVEQPDL | not soluble
MSLSRKYFGTDGIRGRVGEFPITPDFVLKLGWAVGMAFRRQGNCRVLIGKDTRSSGYMFESAFEAGLSASGADTLLLGPMPTPGIAYLTRTFHAEAGVVISASHNPHDDNGIKFFSGQGTKLPDDVELMIEELLDAPMTVVESARLGKVSRINDAAGRYIEFCKSSVPTSTDFNGLKVVLDCANGATYKIAPSVFRELGAEVTVLAASPNGLNINDKCGSTHLDGLQAAVVEHHADLGIAFDGDGDRVMMVDHTGAVVDGDELLFLIARDLQESGRLQGGVVGTLMSNLGLELALQELHIPFVRAKVGDRYVMAELLARNWMLGGENSGHIVCCQNTTTGDAIIAALQVLMALKHRGQTLAEARQGIRKCPQVLINVRFKGENDPLEHPSVKEASVRVTEQMGGRGRVLLRKSGTEPLVRVMVEGDEEASVRAHAEQLAKIVSEVCAEGHHHHHH | soluble
MSKFGGATAKVIKGALKVRQTRAALTLTNEAVSRIRVLLAQQNDANALKIGVRQKGCNGLTYTLEYAKDKQKFDEEVEQDGIKVWIEPKAQLSLLGSEMDYVTDKLSSEFVFRNPNIKGTCGCGESFSI | not soluble
MGHHHHHHSHAPALGGQQSVSNKLLAWSGVLEWQEKPKPASVDANTKLTRSLPCQVYVNHGENLKTEQWPQKLIMQLIPQQLLTTLGPLFRNSRMVQFHFTNKDLESLKGLYRIMGNGFAGCVHFPHTAPCEVRVLMLLYSSKKKIFMGLIPYDQSGFVNGIRQVITNHKQVQQQKLEQQQRGMGGQQAPPGLGPILEDQARPSQNLLQLRPPQPQPQ | not soluble
MNEHIESYHRILEEECLSINEFESFAEAYTIVNEFIKLYNTKRIHSSTKYMPPAEFYEHLRISGETVNMRL | not soluble
QNFLNDQFVIDSIVSAINPQKGQAMVEIGPGLAALTEPVGERLDQLTVIELDRDLAARLQTHPFLGPKLTIYQQDAMTFNFGELAEKMGQPLRVFGNLPYNISTPLMFHLFSYTDAIADMHFMLQKEVVNRLVAGPNSKAYGRLSVMAQYYCNVIPVLEVPPSAFTPPPKVDSAVVRLVPHATMPHPVKDVRVLSRITTEAFNQRRKTIRNSLGNLFSVEVLTGMGIDPAMRAENISVAQYCQMANYLAENA | soluble
